Experimental data reported in the supplement of paper PMC9170038.

Tested on: MS2 coat protein
Experiment: apparent KD of MS2 coat protein; designed switch direction (-1 OFF switch, 1 ON switch): -1; higher = weaker reporter binding
How it was run: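 For each design, the apparent KD is the median over clusters of curves fitted to normalised cluster fluorescence. Clusters held RNA switches with common flanks, transcribed on Illumina chips by stalled E. coli RNA polymerase. These were titrated with SNAP-549-labelled MS2 coat protein, doubling from 0.7 or 1.5 nM to 3 µM, without input, with 200 uM small-molecule ligand, or with an oligonucleotide input.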

[1] = Eterna round: R95, input ligand: microRNA oligo, concentration not stated
[2] = Eterna round: R95, input ligand: FMN 200 uM
[3] = Eterna round: R95, input ligand: none
[4] = input ligand: microRNA oligo, concentration not stated

Sequence	apparent KD of MS2 coat protein [1]	apparent KD of MS2 coat protein [2]	apparent KD of MS2 coat protein [3]	apparent KD of MS2 coat protein (input ligand: FMN 200 uM)	apparent KD of MS2 coat protein (input ligand: none)	apparent KD of MS2 coat protein [4]
GAAGAGACAGGAUAUACAUGAGGAUCACCCAUGUGAGGAUGUUGGAGGCGGAGGAGGUGUAGAAGGGUCAAAGA [JR_Exclu3_Sub020] (puzzle: Exclusion 3)	0.0267 µM					
UUUUACUCAGGAUAUAUGAUGUGAAACAUGAGGAUCACCCAUGUAAUAUUAUGGAUGUAAAUAGAAGGGAGAUUUU [Mat - Exclusion 5 - JL mod - D17] (puzzle: Exclusion 5)	0.0623 µM	0.0588 µM	0.0784 µM			
AUUAUUUAAGUCAGGAUAUCGUAUUUAUUUAAAUACGAGAAGGGACAUGAGGAUCACCCAUGUAAUAAAUUUUA [JMFs Solution 2] (puzzle: Brourd's mod of Exclusion 4)	0.0166 µM					
GGUUAUUCUGUAUGGGUACACAUGAGGAUCACCCAUGUACAGAGGUCUACCCUAAUAUAGCAAGCUGGCCCGUCCUA [Eternabot (L1) Solution 24] (Eterna round: R97, puzzle: Sensor, turn-off variant 1)				0.148 µM	0.132 µM	
ACAUUACAUGAGGAUCACCCAUGUGAGGAUAUGGAGCGAGAGUGUCCUGUCGCGUACACCAGAAGGCGCGGGUG [1st #50] (Eterna round: R97, puzzle: Exclusion 1)				0.235 µM	0.0801 µM	
GGAAAACAUGAGGAUCACCCAUGUAAGGAUAUGCAAAAGGAUAUAGAAGGAAUAAAAAGCAGAAGGUACAAAGG [salish99-ex1_r3_096] (puzzle: Exclusion 1)	0.0457 µM	0.116 µM	0.0666 µM			
CUCCUCAUGGCGCCUAAACACAUGAGGAUCACCCAUGUACAGGCUUCUUGCCGUCUUAUAAUAAAACCGAGGAUGCG [Onleorqula] (puzzle: Sensor v3, turn-off variant 1)	0.283 µM	0.0438 µM	0.0473 µM			
UACAAGCUUUUAAGAUCCCACAUGAGGAUCACCCAUGUGCUCGUCUUGUAACGUACUGUGACGAAAGUCACGGUACG [JL TOV1 3.23] (Eterna round: R97, puzzle: Sensor, turn-off variant 1)				0.0267 µM	0.0275 µM	
AUAAAUCAUGUAGGAUAUGCGUAGCGAAGCUAUGCAGAAGGACAUGAGGAUCACCCAUGUCUUUCCGUCUGCGUACAGACGGAA [Mat - Exclusion NG 1 - Mod of JL - D42] (Eterna round: R96, puzzle: Exclusion NG 1)				0.149 µM	0.0241 µM	0.0201 µM
CGGUGUAGAGGAUAUACGUGAAGAUAAGAAAAUAAUAAUUAACAUGAGGAUCACCCAUGUAGAAGGCUAUAGCG [JR_Ex2_Sub082] (Eterna round: R97, puzzle: Exclusion 2)				0.0663 µM	0.0249 µM	
GACCCAACCGUUAGGAUAUAGUCGACCUACGGCGACUAGAAGGAACAUGAGGAUCACCCAUGUGUGCGCACAAC [Eternabot (Original) Solution 25] (Eterna round: R97, puzzle: Brourd's mod of Exclusion 4)				0.19 µM	0.0608 µM	
GUAAAUCAUGUAGGAUAUGCAUAGCAAAGCUAUGCAGAAGGACAUGAGGAUCACCCAUGUCAUUCCGUCUGGAGACAGACGGAA [Mat - Exclusion NG 1 - Mod of JL - D59] (Eterna round: R96, puzzle: Exclusion NG 1)				0.121 µM	0.0322 µM	0.022 µM
UCGGCGCGAGGAUAUACGUUUGCGCGUUUUCGUUUUUGCGUACAUGAGGAUCACCCAUGUAGAAGGCGCGCCGC [Apr-15 SS2-16] (puzzle: Exclusion 2)	0.0114 µM					
UAGUGGUUACGUUGGAGUUGUAUGAGCGGAGGCUCUGUGACAUGAGGAUCACCCAUGUAGCUUUUUGCUCGUCUUAA [JR_SV3TOV2_Sub039] (puzzle: Sensor v3, turn-off variant 2)	0.0415 µM	0.0225 µM	0.0226 µM			
AGCAUGCUAGGAUAUACGAAACAUUAGGGUUCGUCGUAUGAACAUGAGGAUCACCCAUGUAGAAGGAGCGUGCA [Mat - Exclusion 2 - Mod of Hyphema - D95] (puzzle: Exclusion 2)	0.0179 µM					
AGAACAUGAGGAUCACCCAUGUCGCUUUGCCUACCAAACAGGGAGGAUAUGUAGGGCGCGCACCUACAGAAGGCCCAAACGGAA [Eternabot solution 13] (Eterna round: R96, puzzle: Exclusion NG 3)				0.017 µM	0.0225 µM	0.0185 µM

Sequence	apparent KD of MS2 coat protein [1]	apparent KD of MS2 coat protein [2]	apparent KD of MS2 coat protein [3]	apparent KD of MS2 coat protein (input ligand: FMN 200 uM)	apparent KD of MS2 coat protein (input ligand: none)	apparent KD of MS2 coat protein [4]
AGAUGGCGAGGAUAUACAUGAGGAUCACCCAUGUGAAGAUAUAAAGUGAGGAAGAAAAGUAGAAGGCGCUGUCA [Mat - Exclusion 3 - Mod of Salish D25] (puzzle: Exclusion 3)	0.0488 µM	0.225 µM	0.0637 µM			
AUGUACCGGUGAGGAUAUUUAUAAUAGAGCUUUAUGAUAUACAUGAGGAUCACCCAUGUUACUUUAAAGAAGGCAUCGGAUUAA [Mat - Exclusion NG 2 - Mod of JL - D91] (Eterna round: R96, puzzle: Exclusion NG 2)				0.0153 µM	0.0212 µM	0.0153 µM
AAAAUACGCACAGGAUAUCGAUACAUGAGGAUCACCCAUGUAACAUGGACUGGUCAGCAGAAAAGCGAGAAGGGUGCUGACGAC [Lediaroren] (Eterna round: R96, puzzle: Exclusion NG 2)				0.334 µM	0.0556 µM	0.0903 µM
UAUAUGUCAGGAUAUUAGUAGUAAAUGAAUAAAAUUAUUACUGAGAAGGGACAUGAGGAUCACCCAUGUGCCUC [Mat - Exclusion 4 - Eli Mod - D24] (Eterna round: R97, puzzle: Exclusion 4)				0.387 µM	0.0374 µM	
UUUUAGUCAGGAUAUACAUGAGGAUCACCCAUGUAAAAUUUUAAUUUAAUUUUAAGGUGUAGAAGGGACAUUUA [Ex3 #6] (Eterna round: R97, puzzle: Exclusion 3)				0.0284 µM	0.0336 µM	
CUUUUGUGAGGAUAUCAGUUGUAAAUAAAUAAAAUUACUACUGAGAAGGCACAUGAGGAUCACCCAUGUUCCUC [salish99_ex3_r3_073] (puzzle: Exclusion 4)	0.0378 µM					
GGUUUGGGAGGAUAUGGUUUUAAUAACAUGAGGAUCACCCAUGUAAAUAGAUCCUCAAGGCCAGAAGGCUCGGGCC [-24.9, -24.02 kcal, A 29%] (Eterna round: R97, puzzle: Exclusion 5)				0.508 µM	0.143 µM	
UUUUAGGAAGGAUAUACAUUUUUUUUAUUAUCCUCAUUAUUACAUGAGGAUCACCCAUGUAGAAGGUCCAUUUU [My Design] (puzzle: Exclusion 2)	0.175 µM					
UCGUGUAUAGAGGAUAUAUUAUUUAUUUAAACAAUAGAAGGCUAAACAUGAGGAUCACCCAUGUAUUUGGUUUU [JR_Ex6_Sub052] (Eterna round: R97, puzzle: Exclusion 6)				0.0599 µM	0.0218 µM	
UAAUUAGCAAGUAGAUCCGACAUGAGGAUCACCCAUGUUAUCUGAAAGAACGCAGAAUAACUGUGAGCUCGUCUAAA [Sensor-V1 #1] (Eterna round: R97, puzzle: Sensor, turn-off variant 1)				0.315 µM	0.333 µM	
GCUGGACAAGGAUAUGCAAUCGUGCUUCGGCACGUAAGAUCACAUGAGGAUCACCCAUGUAGAAGGUGUCCAGC [E2/3-C2] (Eterna round: R97, puzzle: Exclusion 2)				0.0625 µM	0.024 µM	
GUACUGAAGCUUUGCUUUAGUCGUACAUGAGGAUCACCCAUGUAGGAUAUGGUAAGCAUAGCUUACUAGAAGGAUAGAGUGAUC [Mat - Exclusion NG 3 - Mod of JL - D65] (Eterna round: R96, puzzle: Exclusion NG 3)				0.169 µM	0.0978 µM	0.0566 µM
CUAGUCCGAGGAUAUAUUAUGUGAUACAUGAGGAUCACCCAUGUUAUAUGAUGGAUAUUAAUAGAAGGCGGACUAG [Mat - Exclusion 5 - JL mod - D74] (puzzle: Exclusion 5)	0.0683 µM	0.058 µM	0.088 µM			
UGAUCUUGGGUCAGGAUAUGCUGGUAUUUUUGCCAGCAGAAGGGACAUGAGGAUCACCCAUGUUCUUGGUUUUU [Magic-14] (puzzle: Brourd's mod of Exclusion 4)	0.0104 µM					
CGAUGCUCGUGUCCACAUGAGGAUCACCCAUGUCGAGUUAGCGAGGAUAUCGGUAGCACAUAGCACGAGAAGGCGCGAACCUGA [Ex NG3 #28] (Eterna round: R96, puzzle: Exclusion NG 3)				0.0584 µM	0.022 µM	0.0159 µM
